Consider two variants from IntAct's records for PubMed 9371806.

The chains are these.
B1: Achaete-scute complex protein T4 (Drosophila melanogaster (Fruit fly)), P10084 (parent)
chain: MKNNNNTTKSTTMSSSVLSTNETFPTTINSATKIFRYQHIMPAPSPLIPGGNQNQPAGTMPIKTRKYTPRGMALTRCSESVSSLSPGSSPAPYNVDQSQSVQRRNARERNRVKQVNNSFARLRQHIPQSIITDLTKGGGRGPHKKISKVDTLRIAVEYIRRLQDLVDDLNGGSNIGANNAVTQLQLCLDESSSHSSSSSTCSSSGHNTYYQNTISVSPLQQQQQLQRQQFNHQPLTALSLNTNLVGTSVPGGDAGCVSTSKNQQTCHSPTSSFNSSMSFDSGTYEGVPQQISTHLDRLDHLDNELHTHSQLQLKFEPYEHFQLDEEDCTPDDEEILDYISLWQEQ
partner: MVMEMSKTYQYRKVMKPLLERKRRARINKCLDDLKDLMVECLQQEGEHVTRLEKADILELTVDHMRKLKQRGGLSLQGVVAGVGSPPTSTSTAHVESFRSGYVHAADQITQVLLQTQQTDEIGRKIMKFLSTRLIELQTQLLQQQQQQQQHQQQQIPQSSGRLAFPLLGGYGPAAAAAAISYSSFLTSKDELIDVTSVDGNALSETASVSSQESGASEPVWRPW
B2: Achaete-scute complex protein T4 (Drosophila melanogaster (Fruit fly)), P10084 (parent)
chain: B1 chain
partner: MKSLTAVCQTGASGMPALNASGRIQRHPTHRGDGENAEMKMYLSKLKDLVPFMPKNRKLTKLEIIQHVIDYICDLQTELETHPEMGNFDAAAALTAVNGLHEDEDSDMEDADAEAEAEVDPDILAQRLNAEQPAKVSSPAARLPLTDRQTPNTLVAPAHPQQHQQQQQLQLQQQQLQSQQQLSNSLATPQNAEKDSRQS

Variants of B1 are the subject of one assay. To be noted: with esm3_drome E(spl)m3-HLH.
In the case of MKNNNNTTKSTTMSSSVLSTNETFPTTINSATKIFRYQHIMPAPSPLIPGGNQNQPAGTMPIKTRKYTPRGMALTRCSESVSSLSPGSSPAPYNVDQSQSVQRRNARERNRVKQVNNSFARLRQHIPQSIITDLTKGGGRGPHKKISKVDTLRIAVEYIRRLQDLVDDLNGGSNIGANNAVTQLQLCLDESSSHSSSSSTCSSSGHNTYYQNTISVSPLQQQQQLQRQQFNHQPLTALSLNTNLVGTSVPGGDAGCVSTSKNQQTCHSPTSSFNSSMSFDSGTYEGVPQQISTHLDRLDHLDNELHTHSQLQLKFEPYEHFQLDEEDCTPDDEEILDYIDLWQEQ [S340D], the “effect of a mutation on the interaction” value is given as “increasing interaction”.

A further assay covers variants of B2. To be noted: with emc_drome emc.
For MKNNNNTTKSTTMSSSVLSTNETFPTTINSATKIFRYQHIMPAPSPLIPGGNQNQPAGTMPIKTRKYTPRGMALTRCSESVSSLSPGSSPAPYNVDQSQSVQRRNARERNRVKQVNNSFARLRQHIPQSIITDLTKGGGRGPHKKISKVDTLRIAVEYIRRLQDLVDDLNGGSNIGANNAVTQLQLCLDESSSHSSSSSTCSSSGHNTYYQNTISVSPLQQQQQLQRQQFNHQPLTALSLNTNLVGTSVPGGDAGCVSTSKNQQTCHSPTSSFNSSMSFDSGTYEGVPQQISTHLDRLDHLDNELHTHSQLQLKFEPYEHFQLDEEDCTPDDEEILDYIDLWQEQ [S340D], the “effect of a mutation on the interaction” value is given as “decreasing interaction”.
